Test results reported in publication PMC2704562 (Biochimica et biophysica acta, 2009).
Changes are numbered by the printed parent chain. Numbers in names are those of the source.

B1: Methanococcus jannaschii methionine adenosyltransferase, wild type (enzyme, UniProt Q58605 1-406, looked up)
chain: MRNIIVKKLDVEPIEERPTEIVERKGLGHPDSICDGIAESVSRALCKMYMEKFGTILHHNTDQVELVGGHAYPKFGGGVMVSPIYILLSGRATMEILDKEKNEVIKLPVGTTAVKAAKEYLKKVLRNVDVDKDVIIDCRIGQGSMDLVDVFERQKNEVPLANDTSFGVGYAPLSTTERLVLETERFLNSDELKNEIPAVGEDIKVMGLREGKKITLTIAMAVVDRYVKNIEEYKEVIEKVRKKVEDLAKKIADGYEVEIHINTADDYERESVYLTVTGTSAEMGDDGSVGRGNRVNGLITPFRPMSMEAASGKNPVNHVGKIYNILANLIANDIAKLEGVKECYVRILSQIGKPINEPKALDIEIITEDSYDIKDIEPKAKEIANKWLDNIMEVQKMIVEGKVTTF
B2: Mj-MAT W387F (enzyme, Methanococcus jannaschii, UniProt Q58605 1-406, looked up)
chain: B1 chain with W387F
B3: Mj-MAT W387F-Y72W (enzyme, Methanococcus jannaschii, UniProt Q58605 1-406, looked up)
chain: B1 chain with Y72W, W387F
B4: Mj-MAT W387F-Y170W (enzyme, Methanococcus jannaschii, UniProt Q58605 1-406, looked up)
chain: B1 chain with Y170W, W387F
B5: Mj-MAT W387F-Y85W (enzyme, Methanococcus jannaschii, UniProt Q58605 1-406, looked up)
chain: B1 chain with Y85W, W387F
B6: Mj-MAT W387F-Y120W (enzyme, Methanococcus jannaschii, UniProt Q58605 1-406, looked up)
chain: B1 chain with Y120W, W387F
B7: Mj-MAT W387F-Y226W (enzyme, Methanococcus jannaschii, UniProt Q58605 1-406, looked up)
chain: B1 chain with Y226W, W387F
B8: Mj-MAT W387F-Y233W (enzyme, Methanococcus jannaschii, UniProt Q58605 1-406, looked up)
chain: B1 chain with Y233W, W387F
B9: Mj-MAT W387F-Y255W (enzyme, Methanococcus jannaschii, UniProt Q58605 1-406, looked up)
chain: B1 chain with Y255W, W387F
B10: Mj-MAT W387F-Y267W (enzyme, Methanococcus jannaschii, UniProt Q58605 1-406, looked up)
chain: B1 chain with Y267W, W387F
B11: Mj-MAT W387F-Y273W (enzyme, Methanococcus jannaschii, UniProt Q58605 1-406, looked up)
chain: B1 chain with Y273W, W387F
B12: Mj-MAT W387F-Y323W (enzyme, Methanococcus jannaschii, UniProt Q58605 1-406, looked up)
chain: B1 chain with Y323W, W387F
B13: Mj-MAT W387F-Y344W (enzyme, Methanococcus jannaschii, UniProt Q58605 1-406, looked up)
chain: B1 chain with Y344W, W387F
B14: Mj-MAT W387F-Y371W (enzyme, Methanococcus jannaschii, UniProt Q58605 1-406, looked up)
chain: B1 chain with Y371W, W387F
B15: Mj-MAT W387F-Y49W (enzyme, Methanococcus jannaschii, UniProt Q58605 1-406, looked up)
chain: B1 chain with Y49W, W387F

substrate: Nc1ncnc2c1ncn2[C@@H]1O[C@H](COP(=O)(O)OP(=O)(O)OP(=O)(O)O)[C@@H](O)[C@H]1O; assay: radiometric S-adenosylmethionine formation assay, Michaelis-Menten fit; assay type: biochemical, Methanocaldococcus jannaschii; details: 0.5 mM [methyl-14C]-L-methionine, ATP 0.05-2.5 mM, 55 °C

| Protein | Km [µM] | kcat [s⁻¹] |
| --- | --- | --- |
| B1 | 190 ± 30 | 1.46 ± 0.05 |
| B2 | 110 ± 30 | 1.85 ± 0.08 |
| B3 | 110 ± 30 | 1.62 ± 0.15 |
| B4 | 100 ± 20 | 2.39 ± 0.03 |

Biological target: the molecule itself
Assay: SEC
Details: not given

| Protein | stoichiometry N |
| --- | --- |
| B1 | 2 |

Biological target: the molecule itself
Assay: AUC
Details: not given

| Protein | stoichiometry N |
| --- | --- |
| B2 | 2 |
| B3 | 2 |
| B4 | 2 |
| B5 | 2 |
| B6 | 2 |
| B7 | 2 |
| B8 | 2 |
| B9 | 2 |
| B10 | 2 |
| B11 | 2 |
| B12 | 2 |
| B13 | 2 |
| B14 | 2 |
| B15 | 2 |
